Publication PMC5526978

Biological target: GCSF-Fc (human granulocyte colony-stimulating factor fused with the IgG1 Fc domain at the C-terminus) (UniProt P09919)
Assay: non-reducing SDS-PAGE; purified GCSF-Fc run under reducing and non-reducing conditions, 10% SDS-PAGE

- stoichiometry N: 2
Substance: GCSF-Fc (human granulocyte colony-stimulating factor fused with the IgG1 Fc domain at the C-terminus) (from UniProt P09919-2 31-204) (Fc fusion)
